In general, koff refers to a measure of how fast the partners let go of each other. What is called kon is a measure of how fast the partners come together.

The text below walks through data of PMC9887155, “Kinetics of cone specific G-protein signaling in avian photoreceptor cells” (Frontiers in Molecular Neuroscience, 2023).

Values joined by “and” are separate entries in the source; they are usually repeats but may differ in a detail not shown here. Equal entries are not always repeated. Where two headings read alike, the source gives them in different places. Ends that are not written are not given here.

The target in experiment [1] is Gtα/Giα chimera (α-subunit of the cone specific heterotrimeric G protein of European robin, chimera with Giα) (European robin (Erithacus rubecula)). As to the kind of experiment: FRET or BRET; in solution: intrinsic Trp (excitation 280 nm) to dansyl on the peptide, emission 400–550 nm; peptide and Gtα/Giα each 16.7 μM; 80 mM Hepes pH 7.4, 40 mM KCl, 150 mM NaCl, 10 mM MgCl2, 10 μM GDP; 30 min on ice.

The target is the same in experiment [2]. As to the kind of experiment: SPR; kinetics: Gtα/Giα immobilised on CM5 (2.6–3.4 ng/mm^2); LWO2 injected at 5 to 150 nM in random order; global fit, Langmuir 1:1 model; apparent KD from kd/ka; 12 sets; same running buffer. (In general: Surface plasmon resonance follows binding to a sensor surface in real time, without labels.)
The target of experiment [3] is Gtα/Giα with a C-terminus truncated by six amino acids (European robin (Erithacus rubecula)). As to the kind of experiment: SPR; Gt-3AA or Gt-6AA immobilised on CM5 (3.1–4.2 ng/mm^2); LWO2 injected at 120 nM (Gt-3AA) or 100 nM (Gt-6AA); global fit, Langmuir 1:1 model; apparent KD; three sets each.
The target in experiment [4] is Gtα/Giα with a C-terminus truncated by three amino acids (European robin (Erithacus rubecula)). Described as above.
For experiment [5], the target named is Gtα/Giα with a C-terminus truncated by six amino acids (European robin (Erithacus rubecula)). The description is as above. The source holds these as a separate data set.
For experiment [6], the target named is Gtα/Giα with a C-terminus truncated by three amino acids (European robin (Erithacus rubecula)). Described as above. This is another data set of the same source.

B1: dansylated peptide LWO2 (peptide)
peptide: CGAGAWERWFVVCKPFGNIKFDGK-NH2
modifications: cysteine pairing not given here; also: dansyl coupled to free amino groups
With B1, the decrease of dansyl fluorescence emission (FRET) on adding Gtα/Giα (relative fluorescence counts) in experiment [1] came out at 14000.

B2: peptide LWO2 (second cytoplasmic loop of long-wavelength-sensitive opsin of European robin) (peptide)
peptide: CGAGAWERWFVVCKPFGNIKFDGK-NH2
modifications: cysteine pairing not given here
For the molecule B2, the Kd in experiment [2] was 15.1 nM and 21.4 nM and 3 to 41 nM; in experiment [3] it was 50 nM; in experiment [4] it was 8.7 nM; in experiment [5] it was 34.5 nM; in experiment [6], 7.3 nM. The koff in experiment [2] worked out at 0.000812 s⁻¹; in experiment [3] it was 0.00093 s⁻¹; in experiment [4] it was 0.000937 s⁻¹. Further, the kon in experiment [2] is 53600 M⁻¹ s⁻¹; in experiment [3] it was 18600 M⁻¹ s⁻¹; in experiment [4] it was 108000 M⁻¹ s⁻¹.
